Assay: yeast display, Sf9 membrane polyspecificity reagent, FACS + sequencing; frameworks hold sequencing errors
Summary of the method: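 After 36–48 hours of galactose induction, yeast (Saccharomyces cerevisiae BJ5465) displaying a synthetic nanobody library were stained at 4 °C for 1 hour with 10% biotinylated, detergent-solubilized Sf9 membrane reagent. Streptavidin microbeads enriched the stained cells before FACS sorting into low and high (top ~1%) gates on anti-HA and streptavidin fluorescence. Each clone's polyreactivity label reflects its gate of origin.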

Sequence | polyreactivity (PSR sort gate)
QLQLVESGGGLVQAGGSLRLSCGASGFTFYVYAMGWSRQAPGKERELVAAISKSGGSTYYADSVKGRFTISRDHATNTVDLQMTSLKPEDTAVYSCAVFDNRSGYRGGHRYNSWGQATQVTVSS | high polyreactivity
QLQLVESGGGLVQAGGSLRLSSAASGFIFDGNAMGGYRQAPGKERELVAAISWDGGTYYADSVKGRFTISRDNAKNTVYLQMNSLKPEDTAVDYCPAEQTQLYSFGWDEYWGQGTQVTVSS | low polyreactivity
QLQLVESGGGLVQAGGSLRLSSAASGITFRGYTMGWYRPAPGKERELVARIRSSDGSTYYADSVKGRFTISRDNAKNTVYLQMNSLKPEDTAVYYCNDDRRGRALKYYSWGQGTQVTVSS | low polyreactivity
QLQLVESGGGLVQAGGSLSLSCAASGSTFDYYDMGWYRQAPGKERELFSYISWSGGSTRYADSVKGRYTISRDNAKNTVYLQMNSLKPEESAVYYCNKSNPDYDRLAIHAFDYWGQGTQLTVSS | low polyreactivity
QLQLVESGGGLVQAGVSLRLSCASSGRIFALYAMGLYSQAPGKERELVAAITWRGGRTRYADSVKGRFTFSRDNAKYTVYLQMNSLKPEDTAVYYCAKEYVKYQWDYGYFGQGTQVTVSS | high polyreactivity
QLQLVESGGRLVQAGGSLRLSCAATGFTFGGYAMGWYRQAPGKESELVARIRRSGGSTYYADSVKGRFTISRDNAKNTVYLQMTSLKPEDTAVYYCAAGYSRGQYRYNYWGQGTQVTVSS | high polyreactivity
QLQLVESGGVIVQAGGSLRLSCAASGITIYYNAMGGYRHAPGQVRELVAAITRSGGSPNYADSVKGRFTISRDNAKNNVYLQMKSLKPEDTAVYSCAKGHLYAGHRHYAYGYWGQGTQVTVSS | low polyreactivity
QLQLVESGRGLVQAGGSLRLRCAASVSTFGANAMGWYRQAPGKESELVATISSGGRTYYADSVKGRFTISRDNAKNTVYLQMNSLKPEDTAVYYCNAGADYTYVYISVYVLYDEWGQGTQVTVSS | low polyreactivity
QLQLVESGRGLVQAGGSLRLSCAASGFTFRTYAKGWYRQAPGKERELVAAITVSGGTYYADSVKGRFTISRDNAKNTVYLQMNSLKPEDTAVYYCTAKRFRTGFDYWGQGTQVTVSS | low polyreactivity
QLQLVESGRGLVQAGGSLRLSCAASGRTFYFYGMGWYRQAPGKERELVASITRGTSTTYADSVKGRFTISRDNAKNTVYFQMNSLKPEDTAVYYCAARAWNYLTSYYIGGYEYWGQGTQVTVSS | low polyreactivity
QLQLVESRGGLVQAGGSLRLSCAASGRIFFSNPMGWYIQAPGKDRELVASMTGGDDTNYADSVKGRFTISRDNAKNTVYLQMNSLKPEDTAVYYCAARAIPSYRWVYRFAPQYDYWGQGTQVTVSS | low polyreactivity
QLQREESGGGLVQAGGSLRLSCAASGRTFTRYAMGWYRQAPVKERELVAAISGGGGSTYYADSVKGRFTISRDNAKITVYLQINSLKPEDTAVYYCNAAARVYSFDYWGQGTQVTVSS | low polyreactivity
QLQREESGGGLVQAGGSLRLSCAASGSTFEKNAMGWYRQAPAKERELVAALSNGVSTYDADSVKGRFPISRDNAKNSVYLLMNSLKPEDTAVYYCAADLFFGAETVYYAKFDYWGQGTQVTVSS | low polyreactivity
QQQLVESDVGLDQAGRSHRLSCAASGFIFAPNAMGWYRQAPGKERELVAAITYRGGGTYYADSVKGRFTISRDNAKNTVYLQMNSLKPEDTAVYYCAAGYDSYYRGSYNYWGQGTQVTVSS | high polyreactivity
QVCLQESGGGLVQACGSLRLSCAASGTISRDIFMGWYRQAPGKEREFVATIAQGGITNYADSVKGRFTISRDNAKNTVYLQMNSVKPGDTAVYYCAARDGNCYWFYYWGQGTQVTVSS | high polyreactivity
QVEHVESGGGLVQAGGSLRLSCAASGITFAAYAMGWYRQARGTERELVAAISTSGDSTYYADSVKGRFTISRDYAKITVYLQMNSLKPADTAVYYCNDRRYGYGVGRGLYIYDYCGQGTQVTVSS | high polyreactivity
QVELVESAGGLVQAGGSLRLICAASGLTFDAYAMGWYRQAPGKERELVAAISSGGNTYYADSVKWRFTISRDNAKNTVYLQMNSLKPEDTAVYYCAATFIQVVVNVQLYDYDYWGQGTQVTVSS | low polyreactivity
QVELVESGGGLVQAGGSLRLSCAASGLTFVSYAMGWYRQAPGKERELVAAISRSGGSTYYADSVKGRFTISLDNAKNTVYLQMNSLKPEDTAVYYCNAYSYVEFWAVYRYDYWGQGTQVTVSS | high polyreactivity
QVHHVESGGGLVQAGGSLRLSCAASGFTFDLYATVLSRQAPRKERELVAAITWRGGSTYYADSVKGRFAISRDNAKNTVYLQMNSLQPEDTAVYYCAADYVIVDDAWLITVEMDSWGQGTQVTVSS | low polyreactivity
QVHHVESGGGLVQAGGSLRLSCADSGSIFTYYAMGWYRQAPGKERDLVAAINSGGRTNYADSVKGRFTISRDNAKNTVYLQMNSLKPVDTAVYYCANYGVLQYGYWGQGTQVTVSS | low polyreactivity
QVHHVESVGGLVQAGGILRLSSAASGRTFDRYAMGWYRQEPGKERELVAAISSGGSTYYADSVKGRFTISRDNAKNTVYLQMNSLKPEDTADYYCNAGKTFDFRDGVGYDHWGQGTQVTVSS | low polyreactivity

Sequence | polyreactivity (PSR sort gate)
QVHIVESGGGLDQAGGSLRLSCAASGSIFYRNAMGWYRQAPGKEREMVAAISSDGSTNYADSVKGRFTISRDNAKNTVYLQMNSLKQEDTAVYFCAAQWTQILDYWGQGTQVNVSS | low polyreactivity
QVHLEESGGGIVQAGGSLRLSCAASGSNFGYNAMGWYRQAPGKEREFVARISSRDDRTSYADSVKGRFTISRDNAKNTVYLQMNSLKPEDTAVYYFAAVRFFLTRAWRPLNYWGQGTIVTVSS | high polyreactivity
QVHLEESGGGLVQAGGSLRLRSAATGRIFKRYAMGWYIQAPGKERDLVAAINWSTGGTYYADSVKGRFTISRDNAKNSVYLHMNSLKPVDTAVYSCAADGDAWFEYLDVEYYYWGQGTQVTVSS | low polyreactivity
QVHLEESGGRLVQAGGSLRLSCSDSGRIIPRNVMGLYRQAPGKERELVAAISSRGTRTYYADSVKGRFTISRDNAKNTVFLQMNSLKPEDTAVYYCAADGPYDGYDFWGQGTQVTVSS | high polyreactivity
QVHLGESGGGLVQAGGSLRLSCAASGSIFGYYAMGWYRQAPGKERELVAAITFRDGSTYYADSVKGRFTISRDNAKNTVYLQMNSLKPEDTAVYYCAARVTYSRGYRGGSRTKYDYWGQGTQVTVSS | low polyreactivity
QVHLLESGGGLDHAGGSLRLSCAASGRIFRYYFMGWYRQAPGKERELVAAISRGGRTYYADSVKGRFTISRDNAKNTVYLQMNSLKPEDTAVYYCDAVITQTDTGYGPSFRVYYWGQGTKVTVSS | high polyreactivity
QVHLQDSGGGLVKAGGSLRMSCAASGYIFGSGSMGWFRQAPGKERELVATINNGSSTYYADSVKGRFTISRDNAKNNVYLQMNSLKAEATAVYYCAVYLYRLTFFYYWGQGNQVTVSS | high polyreactivity
QVHLQESGGGLVQAGGSLRLSCEASGSISRYYDMVWYRQAPGKELEFVAGISGGAITYYADSVKGRFTISRDNAKNTVYLQMNSLKPEDTAVYYCAADTGVYQYHSYWGQGTQVTVSS | low polyreactivity
QVHLVASGGGLVQAGGSLRLSCAASGRSFYEYAMGRYRQEPGKERELVAGITSGGSTNYADSVKGRFTISRDNAKNTVYLQMTSLKPEDTAVYYCADSYWGYEYDYWGQGTQVTVSS | low polyreactivity
QVHLVDSGGGLVQAGASLRLSCSASGSIFYSYAMGWYRPAPGKEWELVAAIRRGGSTNYADSVKGRFTISRDNAKNTVYLQMNSLKPEDTAVYYCAAGRFTYAAQRYEYWGQGTQVTVSS | high polyreactivity
QVHLVDSGGGLVQAGGSLRLSCAASGFTFWRYTMGWYRQAPGKERELVAAISGGTTTYYADSVKGRFTISRDNAKNTVYLQMNSLKPEDTAVYYCAAYSQRARTYDYWGQGTQVTVSS | high polyreactivity
QVHLVDSGGGLVQAGGSLRLSCATSGRIFGAYAMVWYRQAPGKESELVAAITSRGGNTYYADSVKGRFTISRDNAKNTVYLQMNSLKPEDTAVYYCAAGHDKRRQYYVGQSAFDYWGQGTQLTVSS | low polyreactivity
QVHLVDSGGGLVQAGGSLRLSCPASGFIFGLYVMGCYRQSPGKERELVAAITTSVGSTYYADSVKGRFTISRDNAKNTVYLQMNSLKPEDTSVYYCAKTSGTIDYDYWGQGTQVTVSS | low polyreactivity
QVHLVDSGGGLVQAGGSLRLSCPASGLTFPSNSMGCYRQAPGKERELVAAISKRGGRTYYADSVKGRFTISRDNAKNTVYLQMNSLKPEDTAVYYCATLYAYPGTVQYAGYNYWGQGTQVTVSS | high polyreactivity
QVHLVDSGGGLVQAGGSLSLSCAASGIIFLTNAMGWYRQAPGTERELVAAITAIGGSTYYADSVKGSFTISRDTSKYTVYLQMNSLKPEDTAGYYCAADFSYVYYLYDYWGQGTQVTVSS | low polyreactivity
QVHLVDSGGGLVQAGGSLSLSCAPSGTTFHPYAMGCYRHAPGKEREFVATISGSAGSTYYADSVKGRFKISRDNAKNTVYLQMNSLKPEDTAVYYCNADSGWFGYDYWGQGTQVTVSS | low polyreactivity
QVHLVEAGVGLVQAGGSLRVSCAASGFTFCRYAMVWYRQAPGKERELVAAIRYSGSSTYYADSVKGRFTISRDNAKNTVYLQMNSLKPEDTAVYYCAKRYYGNDYWGQGTQVTVSS | high polyreactivity
QVHLVESAGGLVQAGGSLRLSCDASGRTFYPNAMGWYRQKHGQERELVAGIRSSGESTYYEDSVKGRFTISRDNAKTTVYLQMNSLKQEDTAVYYGIRDLTPSYDFWGQGSQVTVSS | low polyreactivity
QVHLVESAGGLVQAGGSLRLTCAASGSTFLFYAMGMYRQAPGKERELVAAISRSGTSTYYADSVKGRFTISRDNAKNTVYLQMNSLKPEDTAVYYCAADDYGGYYYWGQGTQVTVSS | high polyreactivity
QVHLVESGAGLVQAGGSLRISCAASGIIFRLYGLGWYRQAPGKERELVAGINTGGSTSADSVKGRFTISRDNAKNTVYLQMNSLKPEDTAVYYCARDPGYYHPWYRYDYWGQGTQVTVSS | low polyreactivity
